{
  "source": "patent US20130149306A1",
  "about": "“Antagonists of Sema3E/PlexinD1 interaction as anti-cancer agents” (NETRIS PHARMA, priority 2010, published 2013)",
  "key": {"Sema3E": {"biological_target": "T1, Sema3E (Mus musculus, UniProt P70275)", "T1 construct": "expressed in transfected cells; host or cells: HEK293T", "T1 sequence (P70275 26-775)": "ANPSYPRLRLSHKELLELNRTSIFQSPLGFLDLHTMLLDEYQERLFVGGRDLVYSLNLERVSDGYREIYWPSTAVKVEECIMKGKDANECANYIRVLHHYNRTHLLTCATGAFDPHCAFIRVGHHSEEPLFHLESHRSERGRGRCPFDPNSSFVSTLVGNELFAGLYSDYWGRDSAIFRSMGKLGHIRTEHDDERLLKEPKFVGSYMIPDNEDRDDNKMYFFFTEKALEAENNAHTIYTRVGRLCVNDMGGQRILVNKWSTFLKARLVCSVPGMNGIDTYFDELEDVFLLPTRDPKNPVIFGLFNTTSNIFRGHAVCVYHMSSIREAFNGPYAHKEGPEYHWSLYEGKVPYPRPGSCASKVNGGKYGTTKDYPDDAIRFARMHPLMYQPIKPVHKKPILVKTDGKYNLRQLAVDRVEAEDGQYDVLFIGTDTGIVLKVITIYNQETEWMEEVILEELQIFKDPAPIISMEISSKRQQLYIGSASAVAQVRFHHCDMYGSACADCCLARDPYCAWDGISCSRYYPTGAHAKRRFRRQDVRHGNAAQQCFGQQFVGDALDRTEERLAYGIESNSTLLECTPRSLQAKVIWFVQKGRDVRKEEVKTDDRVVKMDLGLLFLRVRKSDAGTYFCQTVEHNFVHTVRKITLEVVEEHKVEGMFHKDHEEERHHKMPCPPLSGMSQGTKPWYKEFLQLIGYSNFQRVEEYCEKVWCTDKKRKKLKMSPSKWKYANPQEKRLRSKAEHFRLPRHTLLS", "experiment": "Co-precipitation in transfected HEK293T cells (His-tagged Sema3E, Nickel resin)", "format": "binding", "conditions": "myc-tagged SD1, AP-His-tagged Sema3E", "from_the_text": "(A) SD1 is composed of the immunoglobulin (Ig) k-chain secretion signal peptide, followed by the sema domain of mouse PlexinD1 protein (aa 61 to 531) fused in frame with six myc epitope tags (a.a: amino acid). (B) Co-precipitation experiments on HEK 293T cells transfected with the indicated combinations of myc-tagged SD1, Alkaline phosphatase(AP)-Histidine(His)-tagged Sema3E. SD1 can form a complex with Sema3E protein when His-tagged Sema3E is precipitated with a Nickel resin. (C) Displacement curve of Sema3E binding to PlexinD1-expressing HEK 293T cells by increasing concentrations of SD1 (from 1-12 nM). […] (D-G) Quantification of cell death induction by SD1 in cultures of 4T1 (D-E), MDA-MB-231 (F-G) and MCF-7 (F-G) cells measured by trypan blue exclusion (D and F) or by quantification of the percentage of cleaved Caspase-3 positive cells (E and G) in the absence or presence of exogenous Sema3E (100 ng/ml). SD1 is added as conditioned medium from transfected HEK 293T cells at increasing concentration (0 to 20 nM) (D) or fixed concentration (20 nM) (E-G).\nHEK293T cells were transfected with AP-Sema3E-his and/or equal amounts of SD1 vectors. […] After incubation with HRP conjugated secondary antibodies, signals were detected with enhanced chemoluminescence system (GE Healthcare, RPN2132). […]"}, "VEGFR2": {"biological_target": "T2, VEGFR2 (Homo sapiens, UniProt P35968)", "T2 construct": "expressed in transfected cells; host or cells: HEK293T", "T2 sequence (P35968 20-1356, species assumed)": "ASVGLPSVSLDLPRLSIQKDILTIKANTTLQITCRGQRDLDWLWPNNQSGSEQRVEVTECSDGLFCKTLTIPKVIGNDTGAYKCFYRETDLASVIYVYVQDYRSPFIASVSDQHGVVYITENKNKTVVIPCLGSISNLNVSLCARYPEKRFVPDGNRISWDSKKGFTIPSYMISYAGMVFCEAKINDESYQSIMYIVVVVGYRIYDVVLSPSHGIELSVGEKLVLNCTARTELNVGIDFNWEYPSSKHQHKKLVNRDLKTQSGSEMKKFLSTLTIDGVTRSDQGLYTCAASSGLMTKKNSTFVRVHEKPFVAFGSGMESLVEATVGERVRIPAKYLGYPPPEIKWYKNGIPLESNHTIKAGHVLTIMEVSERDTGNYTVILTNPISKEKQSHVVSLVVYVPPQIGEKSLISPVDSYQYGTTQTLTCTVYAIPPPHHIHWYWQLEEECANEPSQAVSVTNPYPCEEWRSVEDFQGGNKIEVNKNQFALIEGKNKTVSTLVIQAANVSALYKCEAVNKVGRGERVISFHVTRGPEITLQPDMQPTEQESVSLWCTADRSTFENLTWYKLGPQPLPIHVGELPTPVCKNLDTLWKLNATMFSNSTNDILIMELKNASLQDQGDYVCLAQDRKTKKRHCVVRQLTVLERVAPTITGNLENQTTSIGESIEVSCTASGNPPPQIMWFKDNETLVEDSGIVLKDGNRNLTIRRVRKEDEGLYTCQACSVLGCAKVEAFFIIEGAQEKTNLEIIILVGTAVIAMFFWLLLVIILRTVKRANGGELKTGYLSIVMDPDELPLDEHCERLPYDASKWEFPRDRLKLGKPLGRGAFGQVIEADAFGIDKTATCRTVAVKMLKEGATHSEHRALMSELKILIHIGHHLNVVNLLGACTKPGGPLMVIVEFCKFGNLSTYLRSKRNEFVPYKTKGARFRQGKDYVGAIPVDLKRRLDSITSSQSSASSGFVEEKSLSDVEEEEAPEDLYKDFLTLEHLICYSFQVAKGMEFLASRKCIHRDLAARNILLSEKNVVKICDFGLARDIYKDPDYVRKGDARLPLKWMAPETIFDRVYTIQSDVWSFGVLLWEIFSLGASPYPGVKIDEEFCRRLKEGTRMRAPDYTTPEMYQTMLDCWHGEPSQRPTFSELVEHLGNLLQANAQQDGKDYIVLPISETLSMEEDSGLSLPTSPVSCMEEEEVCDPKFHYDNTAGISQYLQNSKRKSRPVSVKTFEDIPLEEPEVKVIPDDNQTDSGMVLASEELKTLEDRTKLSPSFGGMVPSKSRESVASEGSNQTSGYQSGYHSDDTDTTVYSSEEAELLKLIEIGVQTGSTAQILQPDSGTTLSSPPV", "experiment": "Co-precipitation in transfected HEK293T cells", "format": "binding", "conditions": "data not shown"}, "MDA-MB-231 cells": {"system": "MDA-MB-231 cells", "experiment": "Cell death/viability in cultures of MDA-MB-231 cells", "format": "cell-based, human", "description": "(§1) Cell death/viability was determined by trypan blue dye exclusion, MTT cell viability assay, calcein assay, and anti-active caspase-3 immunoreactivity. In some experiments, cells were seeded in multiple 24-well plates (5×10^4 cells/well) for 24 h then transfected with different vectors using Lipofectamine Plus (Invitrogen): The different analysis occurred after 48 h (HEK-293T cells) or 72 h (4T1 cells) of serum starvation. In some experiments, cells were cultured in the presence of 10 μM caspase inhibitors: caspase-3 inhibitor II (Z-DEVD-FMK, 264155, VWR), caspase-8 inhibitor II (Z-IETD-FMK, 218759, VWR), and caspase-9 inhibitor II ([…], 218776, VWR).\n(§2) For trypan blue exclusion experiments, total cells (adherent and floating) were collected by mechanical detachment and medium collection. Cells were pelleted by slow centrifugation and resuspended in serum-free medium. Trypan blue (0.4%) was added in a ratio of 1:1 to the cell suspension, and the percentage of cell death was measured in a hemacytometer by counting, in a blinded fashion and within a given volume, the number of blue (dead) cells and comparing this number to the total number of cells in this same volume.\n(§3) For assessing cell viability using calcein, cells were plated in OptiMEM medium in 96-well black plates (Greiner Bio-one, Courtaboeuf, France). […]"}, "MCF-7 cells": {"system": "MCF-7 cells", "experiment": "Cell death/viability in cultures of MCF-7 cells", "format": "cell-based, human", "description": "as §1, §2, §3"}, "Neuropilin-1": {"biological_target": "T3, Neuropilin-1 (Homo sapiens, UniProt O14786)", "T3 construct": "expressed in transfected cells; host or cells: HEK293T", "T3 sequence (O14786 22-923, species assumed)": "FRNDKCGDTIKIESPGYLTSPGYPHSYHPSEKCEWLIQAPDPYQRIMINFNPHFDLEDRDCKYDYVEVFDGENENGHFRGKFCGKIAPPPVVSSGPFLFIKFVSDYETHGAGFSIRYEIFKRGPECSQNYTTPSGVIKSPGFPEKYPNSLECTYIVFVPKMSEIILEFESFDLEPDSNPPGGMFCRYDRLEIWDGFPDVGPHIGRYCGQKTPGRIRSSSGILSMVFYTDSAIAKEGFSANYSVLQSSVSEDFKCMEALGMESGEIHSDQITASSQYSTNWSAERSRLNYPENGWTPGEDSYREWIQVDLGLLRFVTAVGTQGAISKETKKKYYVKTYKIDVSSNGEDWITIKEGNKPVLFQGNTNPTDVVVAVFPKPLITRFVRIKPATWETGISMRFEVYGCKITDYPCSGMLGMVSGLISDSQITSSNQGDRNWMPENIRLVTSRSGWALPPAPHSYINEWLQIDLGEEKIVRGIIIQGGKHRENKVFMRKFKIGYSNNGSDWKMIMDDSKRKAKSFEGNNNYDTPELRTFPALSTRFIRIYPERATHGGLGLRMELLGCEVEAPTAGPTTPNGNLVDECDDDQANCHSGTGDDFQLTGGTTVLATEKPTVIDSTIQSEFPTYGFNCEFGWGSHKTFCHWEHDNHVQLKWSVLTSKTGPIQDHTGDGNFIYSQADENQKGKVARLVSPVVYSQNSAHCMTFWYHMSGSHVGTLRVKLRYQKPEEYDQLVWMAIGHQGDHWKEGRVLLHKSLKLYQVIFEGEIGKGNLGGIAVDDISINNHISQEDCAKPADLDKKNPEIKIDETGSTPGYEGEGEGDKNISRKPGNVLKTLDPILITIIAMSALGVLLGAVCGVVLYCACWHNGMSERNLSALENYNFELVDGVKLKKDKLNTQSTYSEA", "experiment": "Co-precipitation in transfected HEK293T cells", "format": "binding", "conditions": "data not shown"}, "4T1 cells [1]": {"system": "4T1 cells", "experiment": "Cell death/viability in cultures of 4T1 cells", "format": "cell-based, mouse", "description": "as §1, §2\nFor caspase staining, after immunostaining with anti-active caspase-3 antibody, the percentage of labelled cells was estimated by comparing the number of active caspase-3-stained cells with the total number of cells present on a given surface.\nFor assessing cell viability using calcein, cells were plated in OptiMEM medium in 96-well black plates (Greiner Bio-one, Courtaboeuf, France). After 3-6 days in culture, live cells were stained with 0.5 μg/ml green calcein-acetoxymethyl ester (Molecular Probes, Eugene, Oreg.) for 40 minutes at 37° C., and counted using a flash cytometer (Trophos, Marseille, France).\nWe next used an in vitro assay to evaluate whether SD1 is directly capable of triggering death of tumor cells. […] Similarly, 4T1-SD1 cells, which proliferate at the same rate as 4T1-mock cells during the first 24-48 h in culture, show increased death 72 h after plating, possibly as a result of SD1 accumulation in the culture medium (FIG. 14). […] Thus, SD1 triggers cancer cell death in a PlexinD1 dependent manner."}, "PlexinD1": {"biological_target": "PlexinD1 (Homo sapiens, UniProt Q9Y4D7)", "sequence (Q9Y4D7 47-1925, species assumed)": "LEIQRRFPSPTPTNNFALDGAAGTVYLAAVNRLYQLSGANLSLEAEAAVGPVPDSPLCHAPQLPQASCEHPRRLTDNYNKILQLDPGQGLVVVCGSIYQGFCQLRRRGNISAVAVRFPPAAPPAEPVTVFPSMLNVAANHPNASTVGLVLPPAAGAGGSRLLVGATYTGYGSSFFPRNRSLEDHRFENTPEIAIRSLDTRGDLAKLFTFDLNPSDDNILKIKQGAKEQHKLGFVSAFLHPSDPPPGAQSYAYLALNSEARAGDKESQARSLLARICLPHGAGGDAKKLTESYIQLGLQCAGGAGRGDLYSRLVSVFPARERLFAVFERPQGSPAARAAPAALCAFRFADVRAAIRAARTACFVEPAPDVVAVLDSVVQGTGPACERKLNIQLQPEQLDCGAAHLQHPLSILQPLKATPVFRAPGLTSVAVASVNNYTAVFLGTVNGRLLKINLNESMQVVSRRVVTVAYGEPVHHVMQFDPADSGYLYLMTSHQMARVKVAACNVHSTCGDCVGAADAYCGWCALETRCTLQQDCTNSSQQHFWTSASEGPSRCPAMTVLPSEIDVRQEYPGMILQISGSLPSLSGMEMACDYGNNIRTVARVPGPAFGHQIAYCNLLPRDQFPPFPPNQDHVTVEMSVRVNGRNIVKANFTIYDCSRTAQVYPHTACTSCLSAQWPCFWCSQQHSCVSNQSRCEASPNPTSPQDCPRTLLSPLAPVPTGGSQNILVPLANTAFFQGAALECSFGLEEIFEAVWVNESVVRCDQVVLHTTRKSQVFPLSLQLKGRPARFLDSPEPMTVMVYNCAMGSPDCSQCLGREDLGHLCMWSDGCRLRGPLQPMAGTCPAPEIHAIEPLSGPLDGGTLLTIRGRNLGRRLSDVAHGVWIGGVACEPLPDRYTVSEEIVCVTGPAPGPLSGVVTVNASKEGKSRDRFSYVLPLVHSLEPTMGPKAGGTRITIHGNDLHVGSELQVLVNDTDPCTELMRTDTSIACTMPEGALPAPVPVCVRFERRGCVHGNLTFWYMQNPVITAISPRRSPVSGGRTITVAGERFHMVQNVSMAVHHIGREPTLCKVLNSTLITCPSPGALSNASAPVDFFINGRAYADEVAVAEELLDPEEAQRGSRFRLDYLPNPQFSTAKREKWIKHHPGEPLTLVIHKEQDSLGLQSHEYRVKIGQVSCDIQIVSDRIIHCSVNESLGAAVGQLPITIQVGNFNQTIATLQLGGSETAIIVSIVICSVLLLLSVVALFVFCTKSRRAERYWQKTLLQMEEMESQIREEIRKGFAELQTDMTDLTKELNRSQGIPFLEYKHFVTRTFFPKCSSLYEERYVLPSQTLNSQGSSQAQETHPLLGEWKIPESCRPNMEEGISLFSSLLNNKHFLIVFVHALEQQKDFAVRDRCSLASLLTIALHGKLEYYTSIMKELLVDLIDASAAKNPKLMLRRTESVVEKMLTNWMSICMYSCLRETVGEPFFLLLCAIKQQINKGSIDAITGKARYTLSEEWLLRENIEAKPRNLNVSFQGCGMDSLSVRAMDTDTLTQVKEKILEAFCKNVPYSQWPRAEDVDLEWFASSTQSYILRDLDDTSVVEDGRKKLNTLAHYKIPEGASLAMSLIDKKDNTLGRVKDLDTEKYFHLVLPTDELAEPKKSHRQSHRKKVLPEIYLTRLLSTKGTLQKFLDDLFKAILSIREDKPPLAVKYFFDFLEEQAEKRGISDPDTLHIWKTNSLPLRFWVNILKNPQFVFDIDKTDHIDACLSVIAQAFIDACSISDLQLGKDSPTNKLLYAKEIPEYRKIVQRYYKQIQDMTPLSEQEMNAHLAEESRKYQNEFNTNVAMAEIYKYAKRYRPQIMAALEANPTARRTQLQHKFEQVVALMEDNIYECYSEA", "experiment": "Co-precipitation in transfected HEK293T cells", "format": "binding", "conditions": "data not shown", "description": "We first set up co-precipitation experiments in transfected HEK293T cells to investigate whether the SD1 interacted with Sema3E ligand. […] Next, we examined the displacement of Sema3E binding to Hek293T cells expressing PlexinD1 by different concentrations of SD1 (from 1-12 nM) present in conditioned medium of HEK293T cells transfected with the SD1 plasmid."}, "4T1 cells [2]": {"system": "4T1 cells", "conditions": "for Reduction in the volume of the tumor: 4T1-SD1 vs 4T1-mock", "method": "In vivo studies were conducted in 6-8 weeks old BALB/c ByJ female mice (Charles River Laboratories France). 4.5×10^5 4T1-mock or 4T1-SD1 cells were injected into the right posterior flank or into the mammary fad pad of anaesthetized animals. Tumor size was measured externally every two days using a calliper, and the width (A) and length (B) of the developing tumor was converted to volume using the equation V=0.52×A^2×B. Mice were sacrificed 27 days after injection or when the tumor volume was equal to 300 mm^3.\nWe next evaluated the effect of SD1 on tumor development and metastasic behavior in a syngenic breast cancer model in Balb/c mice, from which 4T1 cells were derived. In a first series of experiments, 4T1-SD1 or 4T1-mock cells were injected either subcutaneously or in their normal anatomical site, the mammary fat pad. The primary tumors formed from the injected cells were collected after 27 days."}, "[3]": {"conditions": "15 nM SD1 in conditioned medium, three days"}},
  "note": "Where two headings read alike, the source gives them in different places.",
  "data": [
    {"molecule": "SD1: Ig k-chain secretion signal peptide, sema domain of mouse PlexinD1 protein (aa 61 to 531), fused with six myc epitope tags (protein, left off: small tags and cut ends) TNNFALDGTAGTVYLAAVNRLYQLSSANLSLEAEATVGPVPDSPLCHAPQLPQASCEHPRRLTDNYNKILQLDPGQGLVVACGSIYQGLCQLRRRGNISALAVSFPPAAPTAEPVTVFPSMLNVAANHPNASTVGLVLPPTSGTGGSRLLVGATYTGFGSAFFPRNRSLEDHRFENTPEIAIRSLDARGDLAKLFTFDLNPSDDNILKIKQGAKEQHKLGFVRAFLHPAVPPHSAQPYAYLALNSEARAGDKDSQARSLLARICLPRGAGGDAKKLTESYIQLGLQCAGGAGRGDLYSRLVSVFPAREQFFAVFERPQGAPGARNAPAALCAFRFDDVQAAIRAARTACFVEPAPDVVAVLDSVVQGTGPACESKRNIQLQPEQLDCGAAHLQHPLTILQPLRASPVFRAPGLTAVAVASANNYTAVFLGTATGRLLKISLNESMQVVSRRVLTVAYGEPVHHVMQFDPMD", "values": [
      {"measurement": "Interaction with Sema3E ligand (co-precipitation)", "setting": "Sema3E", "result": "physically associated with Sema3E"},
      {"measurement": "Direct interaction with VEGFR2", "setting": "VEGFR2", "result": "did not directly interact"},
      {"measurement": "Cell survival, calcein assay", "setting": "MDA-MB-231 cells; [3]", "result": "reduction in cell survival"},
      {"measurement": "Cell death (trypan blue exclusion, cleaved Caspase-3 positive cells)", "setting": "MDA-MB-231 cells; SD1 conditioned medium 20 nM", "result": "induces cell death"},
      {"measurement": "Cell survival, calcein assay", "setting": "MCF-7 cells; [3]", "result": "reduction in cell survival"},
      {"measurement": "Cell death (trypan blue exclusion, cleaved Caspase-3 positive cells)", "setting": "MCF-7 cells; SD1 conditioned medium 20 nM", "result": "induces cell death"},
      {"measurement": "Direct interaction with Neuropilin-1", "setting": "Neuropilin-1", "result": "did not directly interact"},
      {"measurement": "Cell death (trypan blue exclusion, cleaved Caspase-3 positive cells)", "setting": "4T1 cells [1]; SD1 conditioned medium, 0 to 20 nM or 20 nM", "result": "induces cell death"},
      {"measurement": "Viability, calcein assay", "setting": "4T1 cells [1]; SD1 purified from conditioned medium", "result": "decreased viability"},
      {"measurement": "Cell death, trypan blue-exclusion", "setting": "4T1 cells [1]; recombinant SD1 in conditioned medium", "result": "induces cell death"},
      {"measurement": "Direct interaction with PlexinD1", "setting": "PlexinD1", "result": "did not directly interact"},
      {"measurement": "Time until tumors reached an average volume of 300 mm^3", "setting": "4T1 cells [2]; 4T1-SD1, fat pad (4T1-mock: 31±3 dpi)", "result": "50±6", "unit": "dpi"},
      {"measurement": "Time until tumors reached an average volume of 300 mm^3", "setting": "4T1 cells [2]; 4T1-SD1, subcutaneous (4T1-mock: 46±4 dpi)", "result": "60±3", "unit": "dpi"},
      {"measurement": "Tumor cell proliferation (Ki67 immunostaining)", "setting": "4T1 cells [2]; 4T1-SD1 vs 4T1-mock tumors", "result": "unchanged"},
      {"measurement": "Number of metastatic nodules at the surface of the lungs", "setting": "4T1 cells [2]; 27 days, subcutaneous and fat pad transplantations, vs control cells", "result": "decrease"},
      {"measurement": "SD1-induced death of stromal cells in tumors", "setting": "4T1 cells [2]; cleaved Caspase-3/-9 immunostaining", "result": "not susceptible"},
      {"measurement": "Decreased total tumor weight", "setting": "4T1 cells [2]; fat pad injections, 27 days", "result": 56, "unit": "%"},
      {"measurement": "Reduction in the volume of the tumor", "setting": "4T1 cells [2]; mammary fat pad injection, 27 days", "result": 56, "unit": "%"},
      {"measurement": "Reduction in the volume of the tumor", "setting": "4T1 cells [2]; subcutaneous injection, 27 days", "result": 60, "unit": "%"},
      {"measurement": "Decreased total tumor weight", "setting": "4T1 cells [2]; subcutaneous injections, 27 days", "result": 60, "unit": "%"},
      {"measurement": "Concentration of blood vessels in primary tumors (PECAM-1)", "setting": "4T1 cells [2]; subcutaneous, 4T1-SD1 vs control tumors", "result": "did not significantly affect"},
      {"measurement": "Increase in tumor cell death (cleaved Caspase-3 or Caspase-9 positive 4T1 cells) in primary tumors", "setting": "4T1 cells [2]; subcutaneous, 27 days, 4T1-SD1 vs control cells", "result": "~3", "unit": "fold"},
      {"measurement": "Average number of metastatic nodules per lung", "setting": "4T1 cells [2]; tumors of similar size (300 mm^3), subcutaneous and fat pad", "result": "reduction"}
    ]}
  ]
}
